We go through one molecule from article PMC4783868 (Nature, 2015).

The target in this experiment is T1, PB1 subunit of the influenza C/Johannesburg/1/1966 virus polymerase (FluPolC) (influenza C/Johannesburg/1/1966 virus, UniProt Q9IMP4).
T1 sequence: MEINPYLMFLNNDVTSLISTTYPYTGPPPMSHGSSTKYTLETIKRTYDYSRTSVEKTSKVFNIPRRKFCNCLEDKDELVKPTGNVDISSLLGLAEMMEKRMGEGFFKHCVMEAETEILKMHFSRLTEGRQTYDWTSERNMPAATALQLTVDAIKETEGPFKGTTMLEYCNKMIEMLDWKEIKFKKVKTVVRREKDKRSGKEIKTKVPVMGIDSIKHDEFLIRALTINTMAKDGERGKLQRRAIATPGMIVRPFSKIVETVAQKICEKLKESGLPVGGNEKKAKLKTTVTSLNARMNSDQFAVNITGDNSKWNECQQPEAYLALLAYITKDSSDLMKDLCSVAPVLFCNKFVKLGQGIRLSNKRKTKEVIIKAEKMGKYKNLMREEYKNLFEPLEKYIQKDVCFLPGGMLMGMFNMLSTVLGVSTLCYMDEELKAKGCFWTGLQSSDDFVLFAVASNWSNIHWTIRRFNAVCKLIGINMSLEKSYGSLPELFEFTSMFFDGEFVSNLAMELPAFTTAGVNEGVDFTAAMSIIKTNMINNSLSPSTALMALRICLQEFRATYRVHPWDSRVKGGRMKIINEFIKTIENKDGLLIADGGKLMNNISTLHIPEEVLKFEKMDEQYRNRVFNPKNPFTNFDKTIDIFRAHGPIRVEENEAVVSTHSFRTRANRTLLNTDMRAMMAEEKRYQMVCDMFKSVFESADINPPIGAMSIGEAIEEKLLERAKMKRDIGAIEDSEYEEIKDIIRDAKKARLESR
Kind of experiment: crystal structure.

B1: P3 subunit of the influenza C/Johannesburg/1/1966 virus polymerase (FluPolC) (natural protein)
chain: MSKTFAEIAEAFLEPEAVRIAKEAVEEYGDHERKIIQIGIHFQVCCMFCDEYLSTNGSDRFVLIEGRKRGTAVSLQNELCKSYDLEPLPFLCDIFDREEKQFVEIGITRKADDSYFQSKFGKLGNSCKIFVFSYDGRLDKNCEGPMEEQKLRIFSFLATAADFLRKENMFNEIFLPDNEETIIEMKKGKTFLELRDESVPLPFQTYEQMKDYCEKFKGNPRELASKVSQMQSNIKLPIKHYEQNKFRQIRLPKGPMAPYTHKFLMEEAWMFTKISDPERSRAGEILIDFFKKGNLSAIRPKDKPLQGKYPIHYKNLWNQIKAAIADRTMVINENDHSEFLGGIGRASKKIPEISLTQDVITTEGLKQSENKLPEPRSFPRWFNAEWMWAIKDSDLTGWVPMAEYPPADNELEDYAEHLNKTMEGVLQGTNCAREMGKCILTVGALMTECRLFPGKIKVVPIYARSKERKSMQEGLPVPSEMDCLFGICVKSKSHLNKDDGMYTIITFEFSIREPNLEKHQKYTVFEAGHTTVRMKKGESVIGREVPLYLYCRTTALSKIKNDWLSKARRCFITTMDTVETICLRESAKAEENLVEKTLNEKQMWIGKKNGELIAQPLREALRVQLVQQFYFCIYNDSQLEGFCNEQKKILMALEGDKKNKSSFGFNPEGLLEKIEECLINNPMCLFMAQRLNELVIEASKRGAKFFKTD
For the molecule B1, the binding result is listed as “binds”.
